Biological target: murine BAFF (murine) (UniProt Q9WU72)
Experiment: cell-based or functional assay

Chain of UniProt Q9WU72 (Q9WU72 127-309 limits assumed): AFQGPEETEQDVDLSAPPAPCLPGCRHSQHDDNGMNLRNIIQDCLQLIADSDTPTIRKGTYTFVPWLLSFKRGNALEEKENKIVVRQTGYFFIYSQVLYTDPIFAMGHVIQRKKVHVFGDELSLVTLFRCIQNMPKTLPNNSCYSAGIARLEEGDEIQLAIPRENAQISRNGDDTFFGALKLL

B cell surface IgG2a/b expression (MFI, flow cytometry) in wildtype mice after BAFF-R:Fc treatment: 1.7 fold | NF-κB2 transcription in spleen of wildtype mice, 2 days after i.p. BAFF-R:Fc (Affymetrix microarray): 1.82 fold
Substance: BAFF-R:Fc (BAFF-R Fc fusion protein) (from UniProt Q96RJ3 2-71)
